We go through one variant from IntAct's records for PubMed 15143163.

B1: Low-density lipoprotein receptor-related protein 5 (Homo sapiens), O75197 (parent)
chain: MEAAPPGPPWPLLLLLLLLLALCGCPAPAAASPLLLFANRRDVRLVDAGGVKLESTIVVSGLEDAAAVDFQFSKGAVYWTDVSEEAIKQTYLNQTGAAVQNVVISGLVSPDGLACDWVGKKLYWTDSETNRIEVANLNGTSRKVLFWQDLDQPRAIALDPAHGYMYWTDWGETPRIERAGMDGSTRKIIVDSDIYWPNGLTIDLEEQKLYWADAKLSFIHRANLDGSFRQKVVEGSLTHPFALTLSGDTLYWTDWQTRSIHACNKRTGGKRKEILSALYSPMDIQVLSQERQPFFHTRCEEDNGGCSHLCLLSPSEPFYTCACPTGVQLQDNGRTCKAGAEEVLLLARRTDLRRISLDTPDFTDIVLQVDDIRHAIAIDYDPLEGYVYWTDDEVRAIRRAYLDGSGAQTLVNTEINDPDGIAVDWVARNLYWTDTGTDRIEVTRLNGTSRKILVSEDLDEPRAIALHPVMGLMYWTDWGENPKIECANLDGQERRVLVNASLGWPNGLALDLQEGKLYWGDAKTDKIEVINVDGTKRRTLLEDKLPHIFGFTLLGDFIYWTDWQRRSIERVHKVKASRDVIIDQLPDLMGLKAVNVAKVVGTNPCADRNGGCSHLCFFTPHATRCGCPIGLELLSDMKTCIVPEAFLVFTSRAAIHRISLETNNNDVAIPLTGVKEASALDFDVSNNHIYWTDVSLKTISRAFMNGSSVEHVVEFGLDYPEGMAVDWMGKNLYWADTGTNRIEVARLDGQFRQVLVWRDLDNPRSLALDPTKGYIYWTEWGGKPRIVRAFMDGTNCMTLVDKVGRANDLTIDYADQRLYWTDLDTNMIESSNMLGQERVVIADDLPHPFGLTQYSDYIYWTDWNLHSIERADKTSGRNRTLIQGHLDFVMDILVFHSSRQDGLNDCMHNNGQCGQLCLAIPGGHRCGCASHYTLDPSSRNCSPPTTFLLFSQKSAISRMIPDDQHSPDLILPLHGLRNVKAIDYDPLDKFIYWVDGRQNIKRAKDDGTQPFVLTSLSQGQNPDRQPHDLSIDIYSRTLFWTCEATNTINVHRLSGEAMGVVLRGDRDKPRAIVVNAERGYLYFTNMQDRAAKIERAALDGTEREVLFTTGLIRPVALVVDNTLGKLFWVDADLKRIESCDLSGANRLTLEDANIVQPLGLTILGKHLYWIDRQQQMIERVEKTTGDKRTRIQGRVAHLTGIHAVEEVSLEEFSAHPCARDNGGCSHICIAKGDGTPRCSCPVHLVLLQNLLTCGEPPTCSPDQFACATGEIDCIPGAWRCDGFPECDDQSDEEGCPVCSAAQFPCARGQCVDLRLRCDGEADCQDRSDEADCDAICLPNQFRCASGQCVLIKQQCDSFPDCIDGSDELMCEITKPPSDDSPAHSSAIGPVIGIILSLFVMGGVYFVCQRVVCQRYAGANGPFPHEYVSGTPHVPLNFIAPGGSQHGPFTGIACGKSMMSSVSLMGGRGGVPLYDRNHVTGASSSSSSSTKATLYPPILNPPPSPATDPSLYNMDMFYSSNIPATARPYRPYIIRGMAPPTTPCSTDVCDSDYSASRWKASKYYLDLNSDSDPYPPPPTPHSQYLSAEDSCPPSPATERSYFHLFPPPPSPCTDSS
partner: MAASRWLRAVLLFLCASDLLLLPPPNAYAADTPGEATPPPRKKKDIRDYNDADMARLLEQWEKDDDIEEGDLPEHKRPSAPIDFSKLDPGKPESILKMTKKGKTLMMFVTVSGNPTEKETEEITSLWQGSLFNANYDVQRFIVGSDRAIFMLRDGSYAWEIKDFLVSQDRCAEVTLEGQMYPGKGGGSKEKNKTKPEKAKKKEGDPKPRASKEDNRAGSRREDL

In this test the parent is B1. The settings on record: with mesd_mouse Mesd.
G171V: the “effect of a mutation on the interaction” value is given as “disrupting interaction”.
